Laboratory results: publication PMC6156764

Biological target: endogenous TEA domain protein (TEAD), detected with a pan-TEAD antibody, P28347
Test: co-immunoprecipitation (α-Flag) with western blot quantification
Settings: chain shown with the change; lysates of transiently transfected HeLa cells; n = 3; parent: est. 1.0; read off a plot

Sequence of endogenous TEA domain protein (TEAD), detected with a pan-TEAD antibody, P28347 (P28347 whole entry, the tested form may be a part): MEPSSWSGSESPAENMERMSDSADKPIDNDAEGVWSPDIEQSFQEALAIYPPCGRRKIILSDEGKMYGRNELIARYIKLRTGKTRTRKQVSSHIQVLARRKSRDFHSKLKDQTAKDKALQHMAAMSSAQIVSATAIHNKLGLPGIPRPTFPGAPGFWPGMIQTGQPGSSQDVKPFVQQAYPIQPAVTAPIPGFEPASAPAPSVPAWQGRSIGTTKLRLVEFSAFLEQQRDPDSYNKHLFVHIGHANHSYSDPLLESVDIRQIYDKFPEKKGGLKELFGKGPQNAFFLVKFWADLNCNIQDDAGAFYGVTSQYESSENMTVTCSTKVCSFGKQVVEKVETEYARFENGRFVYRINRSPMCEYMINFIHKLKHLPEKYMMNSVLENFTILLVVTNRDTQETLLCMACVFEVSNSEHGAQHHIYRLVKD

Binder | ratio to parent
Flag-tagged wild-type GBP-1 fragment α7–13 (residues 311–582), P32455 L411A; Q412A; V413A; I414A; F415A; S416A; P417A (protein) CMENAVLALAQIENSAAVQKAIAHYEQQMGQKVQLPTETLQELLDLHRDSEREAIEVFIRSSFKDVDHLFQKELAAQLEKKRDDFCKQNQEASSDRCSALAAAAAAALEEEVKAGIYSKPGGYRLFVQKLQDLKKKYYEEPRKGIQAEEILQTYLKSKESMTDAILQTDQTLTEKEKEIEVERVKAESAQASAKMLQEMQRKNEQMMEQKERSYQEHLKQLTEKMENDRVQLLKEQERTLALKLQEQEQLLKEGFQKESRIMKNEIQDLQTK | 1.2
Flag-tagged wild-type GBP-1 fragment α7–13 (residues 311–582), P32455 S404A; D405A; R406A; C407A; S408A; L410A (protein) CMENAVLALAQIENSAAVQKAIAHYEQQMGQKVQLPTETLQELLDLHRDSEREAIEVFIRSSFKDVDHLFQKELAAQLEKKRDDFCKQNQEASAAAAAAALQVIFSPLEEEVKAGIYSKPGGYRLFVQKLQDLKKKYYEEPRKGIQAEEILQTYLKSKESMTDAILQTDQTLTEKEKEIEVERVKAESAQASAKMLQEMQRKNEQMMEQKERSYQEHLKQLTEKMENDRVQLLKEQERTLALKLQEQEQLLKEGFQKESRIMKNEIQDLQTK | 1.1
Flag-tagged wild-type GBP-1 fragment α7–13 (residues 311–582), P32455 V376A; D377A; H378A; L379A; F380A; Q381A; K382A (protein) CMENAVLALAQIENSAAVQKAIAHYEQQMGQKVQLPTETLQELLDLHRDSEREAIEVFIRSSFKDAAAAAAAELAAQLEKKRDDFCKQNQEASSDRCSALLQVIFSPLEEEVKAGIYSKPGGYRLFVQKLQDLKKKYYEEPRKGIQAEEILQTYLKSKESMTDAILQTDQTLTEKEKEIEVERVKAESAQASAKMLQEMQRKNEQMMEQKERSYQEHLKQLTEKMENDRVQLLKEQERTLALKLQEQEQLLKEGFQKESRIMKNEIQDLQTK | 0.37
Flag-tagged wild-type GBP-1 fragment α7–13 (residues 311–582), P32455 K397A; Q398A; N399A; Q400A; E401A; S403A (protein) CMENAVLALAQIENSAAVQKAIAHYEQQMGQKVQLPTETLQELLDLHRDSEREAIEVFIRSSFKDVDHLFQKELAAQLEKKRDDFCAAAAAAASDRCSALLQVIFSPLEEEVKAGIYSKPGGYRLFVQKLQDLKKKYYEEPRKGIQAEEILQTYLKSKESMTDAILQTDQTLTEKEKEIEVERVKAESAQASAKMLQEMQRKNEQMMEQKERSYQEHLKQLTEKMENDRVQLLKEQERTLALKLQEQEQLLKEGFQKESRIMKNEIQDLQTK | 1.7
Flag-tagged wild-type GBP-1 fragment α7–13 (residues 311–582), P32455 E383A; L384A; Q387A; L388A; E389A (protein) CMENAVLALAQIENSAAVQKAIAHYEQQMGQKVQLPTETLQELLDLHRDSEREAIEVFIRSSFKDVDHLFQKAAAAAAAKKRDDFCKQNQEASSDRCSALLQVIFSPLEEEVKAGIYSKPGGYRLFVQKLQDLKKKYYEEPRKGIQAEEILQTYLKSKESMTDAILQTDQTLTEKEKEIEVERVKAESAQASAKMLQEMQRKNEQMMEQKERSYQEHLKQLTEKMENDRVQLLKEQERTLALKLQEQEQLLKEGFQKESRIMKNEIQDLQTK | 1.6
Flag-tagged wild-type GBP-1 fragment α7–13 (residues 311–582), P32455 L418A; E419A; E420A; E421A; V422A; K423A (protein) CMENAVLALAQIENSAAVQKAIAHYEQQMGQKVQLPTETLQELLDLHRDSEREAIEVFIRSSFKDVDHLFQKELAAQLEKKRDDFCKQNQEASSDRCSALLQVIFSPAAAAAAAGIYSKPGGYRLFVQKLQDLKKKYYEEPRKGIQAEEILQTYLKSKESMTDAILQTDQTLTEKEKEIEVERVKAESAQASAKMLQEMQRKNEQMMEQKERSYQEHLKQLTEKMENDRVQLLKEQERTLALKLQEQEQLLKEGFQKESRIMKNEIQDLQTK | 0.95
Flag-tagged wild-type GBP-1 fragment α7–13 (residues 311–582), P32455 K390A; K391A; R392A; D393A; D394A; F395A; C396A (protein) CMENAVLALAQIENSAAVQKAIAHYEQQMGQKVQLPTETLQELLDLHRDSEREAIEVFIRSSFKDVDHLFQKELAAQLEAAAAAAAKQNQEASSDRCSALLQVIFSPLEEEVKAGIYSKPGGYRLFVQKLQDLKKKYYEEPRKGIQAEEILQTYLKSKESMTDAILQTDQTLTEKEKEIEVERVKAESAQASAKMLQEMQRKNEQMMEQKERSYQEHLKQLTEKMENDRVQLLKEQERTLALKLQEQEQLLKEGFQKESRIMKNEIQDLQTK | 1.6
